Drawing on the RNAGym collection of RNA variant scans (doi:10.1093/molbev/msab373), this text covers reverse-splicing fitness for 15 variants.

B1: Azoarcus group I ribozyme (parent)
chain: GUGCCUUGCGCCGGGAAACCACGCAAGGGAUGGUGUCAAAUUCGGCGAAACCUAAGCGCCCGCCCGGGCGUAUGGCAACGCCGAGCCAAGCUUCGGCGCCUGCGCCGAUGAAGGUGUAGAGACUAGACGGCACCCACCUAAGGCAAACGCUAUGGUGAAGGCAUAGUCCAGGGAGUGGCGAAAGUCACACAAACCGG

Variants of B1 are the subject of the data set. The data set is described as follows: reverse-splicing fitness (ratio to wild type); higher = more active; in vitro selection; Mg2+ level not given. The essentials:
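An in vitro group I ribozyme library with randomized positions was T7-transcribed and gel-purified. In triplicate, 10 pmol RNA in EPPS pH 7.5 was reacted with 50 pmoles of a 30-nt RNA substrate for 1 h at 37 °C across several added MgCl2 levels (1–48 mM), then stopped with EDTA. Products were reverse transcribed from a substrate-complementary primer, PCR-amplified and sequenced (HiSeq 4000). Fitness is a variant's read proportion after selection over that before, normalised to wild type.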
For GUGCCUUGCGCCGGGAAACCACGCAAGGGAUGGUGUCAAAUUCGGCGAAACCUAAGCGCCCGCCCGGGCGUAUGGCAACGCUGAGCCAAGCUUCGGCGCCUGCGCCGAUGCAGGUGUAGCGACUAGACGGCACCCACCUAAGGCCAACGCUAUGGUGAAGGCAUAGUCAAGGGAGCGGCGAAAGUCACACAAACCGG [C82U A111C A120C A145C C169A U176C], the reverse-splicing fitness came out at 0.00743.

For GUGCCUUGCGCCGGGAAACCACGCAAGGGAUGGUGUCAAAUUCGGCGAAACCUAAGCGCCCGCCCGGGCGUAUGGCAACGCUGAGCCAAGCUUCGGCGCCUGCGCCGAUGCAGGUGUAGCGACUAGACGGCACCCACCUAAGGCCAACGCUAUGGUGAAGGCAUAGUCAAGGGAGAGGCGAAAGUCACACAAACCGG [C82U A111C A120C A145C C169A U176A], the reverse-splicing fitness came out at 0.0111.

Regarding GUGCCUUGCGCCGGGAAACCACGCAAGGGAUGGUGUCAAAUUCGGCGAAACCUAAGCGCCCGCCCGGGCGUAUGGCAACGCUGAGCCAAGCUUCGGCGCCUGCGCCGAUGCAGGUGUAGCGACUAGACGGCACCCACCUAAGGCCAACGCUAUGGUGAAGGCAUAGUCAAGGGAGGGGCGAAAGUCACACAAACCGG [C82U A111C A120C A145C C169A U176G], the reverse-splicing fitness was found to be 0.00387.

For the variant GUGCCUUGCGCCGGGAAACCACGCAAGGGAUGGUGUCAAAUUCGGCGAAACCUAAGCGCCCGCCCGGGCGUAUGGCAACGCUGAGCCAAGCUUCGGCGCCUGCGCCGAUGCAGGUGUAGCGACUAGACGGCACCCACCUAAGGCCAACGUUAUGGUGAAGGCAUAGUCCAGGGAGAGGCGAAAGUCACACAAACCGG [C82U A111C A120C A145C C150U U176A], the reverse-splicing fitness is 0.00836.

For GUGCCUUGCGCCGGGAAACCACGCAAGGGAUGGUGUCAAAUUCGGCGAAACCUAAGCGCCCGCCCGGGCGUAUGGCAACGCUGAGCCAAGCUUCGGCGCCUGCGCCGAUGCAGGUGUAGCGACUAGACGGCACCCACCUAAGGCCAACGUUAUGGUGAAGGCAUAGUCCAGGGAGCGGCGAAAGUCACACAAACCGG [C82U A111C A120C A145C C150U U176C], the reverse-splicing fitness turned out to be 0.0102.

As to GUGCCUUGCGCCGGGAAACCACGCAAGGGAUGGUGUCAAAUUCGGCGAAACCUAAGCGCCCGCCCGGGCGUAUGGCAACGCUGAGCCAAGCUUCGGCGCCUGCGCCGAUGCAGGUGUAGCGACUAGACGGCACCCACCUAAGGCCAACGUUAUGGUGAAGGCAUAGUCCAGGGAGGGGCGAAAGUCACACAAACCGG [C82U A111C A120C A145C C150U U176G], the reverse-splicing fitness came out at 0.0052.

In the case of GUGCCUUGCGCCGGGAAACCACGCAAGGGAUGGUGUCAAAUUCGGCGAAACCUAAGCGCCCGCCCGGGCGUAUGGCAACGCUGAGCCAAGCUUCGGCGCCUGCGCCGAUGCAGGUGUAGCGACUAGACGGCACCCACCUAAGGCCAACGUUAUGGUGAAGGCAUAGUCAAGGGAGGGGCGAAAGUCACACAAACCGG [C82U A111C A120C A145C C150U C169A U176G], the reverse-splicing fitness is 0.00658.

As to GUGCCUUGCGCCGGGAAACCACGCAAGGGAUGGUGUCAAAUUCGGCGAAACCUAAGCGCCCGCCCGGGCGUAUGGCAACGCUGAGCCAAGCUUCGGCGCCUGCGCCGAUGCAGGUGUAGCGACUAGACGGCACCCACCUAAGGCCAACGUUAUGGUGAAGGCAUAGUCAAGGGAGAGGCGAAAGUCACACAAACCGG [C82U A111C A120C A145C C150U C169A U176A], the reverse-splicing fitness was found to be 0.012.

Regarding GUGCCUUGCGCCGGGAAACCACGCAAGGGAUGGUGUCAAAUUCGGCGAAACCUAAGCGCCCGCCCGGGCGUAUGGCAACGCUGAGCCAAGCUUCGGCGCCUGCGCCGAUGCAGGUGUAGCGACUAGACGGCACCCACCUAAGGCCAACGUUAUGGUGAAGGCAUAGUCAAGGGAGCGGCGAAAGUCACACAAACCGG [C82U A111C A120C A145C C150U C169A U176C], the reverse-splicing fitness is 0.00703.

For GUGCCUUGCGCCGGGAAACCACGCAAGGGAUGGUGUCAAAUUCGGCGAAACCUAAGCGCCCGCCCGGGCGUAUGGCAACGCUGAGCCAAGCUUCGGCGCCUGCGCCGAUGCAGGUGUAGCGACUAGACGGCACCCACCUAAGGCCAACGUUAUGGUGAAGGCAUAGUCUAGGGAGAGGCGAAAGUCACACAAACCGG [C82U A111C A120C A145C C150U C169U U176A], the reverse-splicing fitness came to 0.0145.

For GUGCCUUGCGCCGGGAAACCACGCAAGGGAUGGUGUCAAAUUCGGCGAAACCUAAGCGCCCGCCCGGGCGUAUGGCAACGCUGAGCCAAGCUUCGGCGCCUGCGCCGAUGCAGGUGUAGCGACUAGACGGCACCCACCUAAGGCCAACGUUAUGGUGAAGGCAUAGUCUAGGGAGCGGCGAAAGUCACACAAACCGG [C82U A111C A120C A145C C150U C169U U176C], the reverse-splicing fitness was found to be 0.0122.

On to GUGCCUUGCGCCGGGAAACCACGCAAGGGAUGGUGUCAAAUUCGGCGAAACCUAAGCGCCCGCCCGGGCGUAUGGCAACGCUGAGCCAAGCUUCGGCGCCUGCGCCGAUGCAGGUGUAGCGACUAGACGGCACCCACCUAAGGCCAACGUUAUGGUGAAGGCAUAGUCUAGGGAGGGGCGAAAGUCACACAAACCGG [C82U A111C A120C A145C C150U C169U U176G], for which the reverse-splicing fitness is 0.0068.

Consider GUGCCUUGCGCCGGGAAACCACGCAAGGGAUGGUGUCAAAUUCGGCGAAACCUAAGCGCCCGCCCGGGCGUAUGGCAACGCUGAGCCAAGCUUCGGCGCCUGCGCCGAUGCAGGUGUAGCGACUAGACGGCACCCACCUAAGGCCAACGGUAUGGUGAAGGCAUAGUCGAGGGAGGGGCGAAAGUCACACAAACCGG [C82U A111C A120C A145C C150G C169G U176G], for which the reverse-splicing fitness was found to be 0.00552.

For the variant GUGCCUUGCGCCGGGAAACCACGCAAGGGAUGGUGUCAAAUUCGGCGAAACCUAAGCGCCCGCCCGGGCGUAUGGCAACGCUGAGCCAAGCUUCGGCGCCUGCGCCGAUGCAGGUGUAGCGACUAGACGGCACCCACCUAAGGCCAACGCUAUGGUGAAGGCAUAGUCAAGGGAGUGGCGAAAGUCACACAAACCGG [C82U A111C A120C A145C C169A], the reverse-splicing fitness came out at 0.00667.

GUGCCUUGCGCCGGGAAACCACGCAAGGGAUGGUGUCAAAUUCGGCGAAACCUAAGCGCCCGCCCGGGCGUAUGGCAACGCUGAGCCAAGCUUCGGCGCCUGCGCCGAUGCAGGUGUAGCGACUAGACGGCACCCACCUAAGGCCAACGCUAUGGUGAAGGCAUAGUCGAGGGAGUGGCGAAAGUCACACAAACCGG [C82U A111C A120C A145C C169G]: the reverse-splicing fitness was determined as 0.00865.
